Where two headings read alike, the source gives them in different places. Starred links: 1 amine or outer side, 2 acyl side, 3 side chain; linkers in the order of their positions; H or OH if unused. Positions of bridges follow the written chain, without caps; N, C: chain ends. Non-standard residues stand in square brackets, D forms with d. Residues, ends and D or L forms follow the SMILES beside them. Groups on a side chain read outwards from the residue. Primed or numbered codes have the meaning given here. TMAPF = 5-(4-(2-amino-2-carboxyethyl)phenoxy)-N,N,N-trimethylpentan-1-aminium, C[N+](C)(C)CCCCCOc1ccc(C[C@H](N[*:1])C(=O)[*:2])cc1; AEF(G) = 2-amino-3-(4-(2-guanidinoethoxy)phenyl)propanoic acid, N=C(N)NCCOc1ccc(C[C@H](N[*:1])C(=O)[*:2])cc1; 6Br2Nal = 2-amino-3-(6-bromonaphthalen-2-yl)propanoic acid, O=C([C@H](Cc1ccc2cc(Br)ccc2c1)N[*:1])[*:2]; 6F2Nal = 2-amino-3-(6-fluoronaphthalen-2-yl)propanoic acid, O=C([C@H](Cc1ccc2cc(F)ccc2c1)N[*:1])[*:2]; Trp(7-(3-AcNH-Ph)) = CC(=O)Nc1cccc(-c2cccc3c(C[C@H](N)C(=O)O)c[nH]c23)c1; PEG2NMePEG2NMegENMeCl8Tetrazole = not defined here; 2Nal(6-OH) = N[C@@H](Cc1ccc2cc(O)ccc2c1)C(=O)O; Trp(7-Me) = Cc1cccc2c(C[C@H](N)C(=O)O)c[nH]c12; d(hLys(Me3)) = C[N+](C)(C)CCCCC[C@@H](N)C(=O)O; 3Pal(5-Me) = Cc1cncc(C[C@H](N)C(=O)O)c1; γGlu = O=C(O)[C@H](CCC(=O)[*:2])N[*:1]; AEF = NCCOc1ccc(C[C@H](N)C(=O)O)cc1; 3Pal = N[C@@H](Cc1cccnc1)C(=O)O; Lys(Me) = CNCCCC[C@H](N)C(=O)O; NMecPEG3a = not defined here; Pen = CC(C)(S)[C@H](N)C(=O)O; PEG2′ = not defined here; Thp = NC1(C(=O)O)CCOCC1; Sar = CNCC(=O)O
B1: SEQ ID NO: 11 (peptide)
peptide: XXNTXXXXXXENXX
modifications: MeCO-k(Me)3-Pen(3)-N-T-7(3NAcPh)W-K(Ac)-Pen(3)-AEF(G)-6OH2Nal-THP-E-N-5MePyridinAla-Sar-CONH2
B2: SEQ ID NO: 15 (peptide)
peptide: Ac-[dR][Pen]NT[Trp(7-(3-AcNH-Ph))]K(Ac)[Pen][AEF(G)][2Nal(6-OH)][Thp]EN[3Pal(5-Me)][Sar]-NH2
modifications: disulfide 2-7 (inferred)
B3: SEQ ID NO: 287 (peptide)
peptide: Ac-[dR][Pen]NT[Trp(7-(3-AcNH-Ph))]K(Ac)[Pen][AEF][2Nal(6-OH)][Thp]EN[3Pal][Sar]-NH2
modifications: disulfide 2-7 (inferred)
B4: SEQ ID NO: 319 (peptide)
peptide: cPEG3aCO-[Pen]NT[Trp(7-Me)]K(NMecPEG3a)[Pen][AEF][2Nal(6-OH)][Thp]EN[3Pal][Sar]-NH2
modifications: disulfide 1-6 (inferred); not fully specified; printed as cPEG3aCO-Pen(3)-N-T-7MeW-K(NMecPEG3a)-Pen(3)-AEF-6OH2Nal-THP-E-N-3Pya-Sar-CONH2; reading uncertain
B5: SEQ ID NO: 349 (peptide)
peptide: Ac-X[Pen]NT[Trp(7-Me)]K(Ac)[Pen][AEF][2Nal(6-OH)][Thp]EN[3Pal][Sar]-NH2
modifications: disulfide 2-7 (inferred); not fully specified (residue 1); printed as MeCO-k(d)-Pen(3)-N-T-7MeW-K(Ac)-Pen(3)-AEF-6OH2Nal-THP-E-N-3Pya-Sar-CONH2
B6: SEQ ID NO: 407 (peptide)
peptide: Ac-[dR][Pen]NT[Trp(7-Me)]K(Ac)[Pen][AEF][6F2Nal][Thp]EN[3Pal][Sar]-NH2
modifications: disulfide 2-7 (inferred)
B7: SEQ ID NO: 11 (peptide)
peptide: XXNTXXXXXXENXX
modifications: MeCO-k(Me)3-Pen(3)-N-T-7(3NAcPh)W-K(Ac)-Pen(3)-AEF(G)-6OH2Nal-THP-E-N-5MePyridinAla-Sar-CONH2
B8: SEQ ID NO: 15 (peptide)
peptide: Ac-[dR][Pen]NT[Trp(7-(3-AcNH-Ph))]K(Ac)[Pen][AEF(G)][2Nal(6-OH)][Thp]EN[3Pal(5-Me)][Sar]-NH2
modifications: disulfide 2-7 (inferred)
B9: SEQ ID NO: 59 (peptide)
peptide: Ac-[dR][Pen]NT[Trp(7-Me)]K(Ac)[Pen][TMAPF][2Nal(6-OH)][Thp]EN[3Pal][Sar]-NH2
modifications: disulfide 2-7 (inferred)
B10: SEQ ID NO: 115 (peptide)
peptide: Ac-[dR][Pen]NT[Trp(7-Me)]K(Ac)[Pen][AEF][2Nal(6-OH)][Thp]EN[3Pal][Sar]K(PEG2NMePEG2NMegENMeCl8Tetrazole)-NH2
modifications: disulfide 2-7 (inferred); reading uncertain
B11: SEQ ID NO: 273 (peptide)
peptide: Ac-[Pen]NT[Trp(7-Me)]K(Ac)[Pen][AEF][2Nal(6-OH)][Thp]K([PEG2′-PEG2′-γGlu-C18OH])N[3Pal][Sar]-NH2
modifications: disulfide 1-6 (inferred)
B12: SEQ ID NO: 282 (peptide)
peptide: Ac-[dR][Pen]NT[Trp(7-Me)]K(Ac)[Pen][AEF][2Nal(6-OH)][Thp]EN[3Pal][Sar]K([PEG2′-PEG2′-γGlu-C18OH])-NH2
modifications: disulfide 2-7 (inferred)
B13: SEQ ID NO: 283 (peptide)
peptide: Ac-[Pen]NT[Trp(7-Me)]K(Ac)[Pen][AEF][2Nal(6-OH)][Thp]EN[3Pal][Sar]K([PEG2′-PEG2′-γGlu-C18OH])-NH2
modifications: disulfide 1-6 (inferred)
B14: SEQ ID NO: 287 (peptide)
peptide: Ac-[dR][Pen]NT[Trp(7-(3-AcNH-Ph))]K(Ac)[Pen][AEF][2Nal(6-OH)][Thp]EN[3Pal][Sar]-NH2
modifications: disulfide 2-7 (inferred)
B15: SEQ ID NO: 319 (peptide)
peptide: cPEG3aCO-[Pen]NT[Trp(7-Me)]K(NMecPEG3a)[Pen][AEF][2Nal(6-OH)][Thp]EN[3Pal][Sar]-NH2
modifications: disulfide 1-6 (inferred); not fully specified; printed as cPEG3aCO-Pen(3)-N-T-7MeW-K(NMecPEG3a)-Pen(3)-AEF-6OH2Nal-THP-E-N-3Pya-Sar-CONH2; reading uncertain
B16: SEQ ID NO: 349 (peptide)
peptide: Ac-X[Pen]NT[Trp(7-Me)]K(Ac)[Pen][AEF][2Nal(6-OH)][Thp]EN[3Pal][Sar]-NH2
modifications: disulfide 2-7 (inferred); not fully specified (residue 1); printed as MeCO-k(d)-Pen(3)-N-T-7MeW-K(Ac)-Pen(3)-AEF-6OH2Nal-THP-E-N-3Pya-Sar-CONH2
B17: SEQ ID NO: 407 (peptide)
peptide: Ac-[dR][Pen]NT[Trp(7-Me)]K(Ac)[Pen][AEF][6F2Nal][Thp]EN[3Pal][Sar]-NH2
modifications: disulfide 2-7 (inferred)
B18: SEQ ID NO: 428 (peptide)
peptide: Ac-[Pen]NT[Trp(7-Me)]K(Ac)[Pen][AEF][2Nal(6-OH)][Thp]EN[3Pal][Sar]-NH2
modifications: disulfide 1-6 (inferred)
B19: SEQ ID NO: 442 (peptide)
peptide: Ac-[dR][Pen]NT[Trp(7-Me)]K(Ac)[Pen][AEF][2Nal(6-OH)][Thp]EN[3Pal][Sar]-NH2
modifications: disulfide 2-7 (inferred)
B20: SEQ ID NO: 444 (peptide)
peptide: Ac-[dR][Pen]NT[Trp(7-Me)]K(Ac)[Pen][AEF][6Br2Nal][Thp]EN[Thp]-NH2
modifications: disulfide 2-7 (inferred)

Tests used:
[1] = molecular target: T1, IL-23-stimulated phosphorylated STAT3 in peripheral blood mononuclear cells (PBMCs) (Homo sapiens, UniProt Q5VWK5); assay: PBMC pSTAT3 Assay; format: cell-based; details: PBMCs from healthy donors, IL-23 5 ng/mL, 30 minutes, read-out: PBMC pSTAT3 IC50
T1 sequence (Q5VWK5 24-629): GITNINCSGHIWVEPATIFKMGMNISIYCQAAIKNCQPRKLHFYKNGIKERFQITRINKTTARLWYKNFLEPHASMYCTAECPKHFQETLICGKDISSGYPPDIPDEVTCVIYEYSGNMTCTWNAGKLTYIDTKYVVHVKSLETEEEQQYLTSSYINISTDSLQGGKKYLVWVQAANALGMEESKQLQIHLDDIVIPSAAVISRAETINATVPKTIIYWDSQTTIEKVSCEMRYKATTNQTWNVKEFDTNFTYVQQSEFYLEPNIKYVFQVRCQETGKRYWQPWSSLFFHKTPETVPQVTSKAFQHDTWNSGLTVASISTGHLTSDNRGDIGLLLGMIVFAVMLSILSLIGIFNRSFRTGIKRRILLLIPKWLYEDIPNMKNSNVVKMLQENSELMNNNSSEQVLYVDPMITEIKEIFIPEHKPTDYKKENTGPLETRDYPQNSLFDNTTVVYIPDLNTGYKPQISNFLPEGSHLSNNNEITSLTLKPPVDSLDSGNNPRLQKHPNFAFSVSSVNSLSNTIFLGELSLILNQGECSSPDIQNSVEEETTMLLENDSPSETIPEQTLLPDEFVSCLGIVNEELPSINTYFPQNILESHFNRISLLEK
In short: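 Anti-CD3/IL-1β-expanded donor PBMCs (day 4) starved ~4 h in RPMI-0.1% BSA, preincubated 30 min with peptide, then stimulated 30 min at 37° C with 5 ng/mL IL-23 (final). Lysates read for phospho-STAT3 by Meso Scale phospho-STAT panel immunoassay.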

[2] = disulfide bond, 20-membered ring, I2/MeOH, 20% MeCN/H2O
[3] = molecular target: T2, IL-23R (Homo sapiens, UniProt Q5VWK5); assay: IL23R Reporter Assay; format: cell-based; details: HEK293 cells containing IL-23R, IL-12Rβ1 and STAT-inducible luciferase reporter; 10 ng/mL IL-23; 5 h; read-out: IC50
T2 construct: host or cells: HEK293
T2 sequence (Q5VWK5 24-629): T1 sequence (Q5VWK5 24-629)
Description: Compounds were serially diluted in 100% (v/v) DMSO) and plated using an Echo acoustic dispenser (Labcyte) into 1536-well non-treated black assay plates (Corning #9146). […] After 5 h at 37° C., 5% CO2, 95% relative humidity, cells were placed at 20° C. and treated with BioGlo reagent (Promega) according to the Manufacturer's instructions. Luminescence was measured on a Pherastar FSX (BMG LabTech).

[4] = molecular target: T3, interleukin-23 receptor (IL-23R) (UniProt Q5VWK5 24-629, limits assumed); assay: cell-based or functional assay
T3 sequence (looked up): T1 sequence (Q5VWK5 24-629)

[5] = molecular target: T4, interleukin-23 receptor (IL-23R) (UniProt Q5VWK5 24-629, limits assumed); assay: cell-based or functional assay; remark: listed apart in the source
T4 sequence (looked up): T1 sequence (Q5VWK5 24-629)

Molecule | PBMC pSTAT3 IC50 [5] [nM] | also measured
CC(=O)N[C@H](CCCCC[N+](C)(C)C)C(=O)N[C@@H]1C(=O)N[C@@H](CC(=O)N(C)C)C(=O)N[C@@H]([C@@H](C)O)C(=O)N[C@@H](Cc2c[nH]c3c(C)cccc23)C(=O)N[C@@H](CCCCN(C)C(C)=O)C(=O)N[C@H](C(=O)N[C@@H](Cc2ccc(OCCN)cc2)C(=O)N[C@@H](Cc2ccc3cc(O)ccc3c2)C(=O)NC2(C(=O)N[C@@H](CCC(=O)O)C(=O)N[C@@H](CC(N)=O)C(=O)N[C@@H](Cc3cccnc3)C(=O)N(C)CC(=O)N(C)C)CCOCC2)C(C)(C)SSC1(C)C [SEQ ID NO: 389, MeCO-hk(Me)3-Pen(3)-N(N(Me)2)-T-7MeW-K(NMeAc)-Pen(3)-AEF-6OH2Nal-THP-E-N-3Pya-Sar-CON(Me)2] (Ac-[d(hLys(Me3))][Pen]D(NMe2)T[Trp(7-Me)][Lys(Me)](Ac)[Pen][AEF][2Nal(6-OH)][Thp]EN[3Pal][Sar]-NMe2; disulfide 2-7) |  | IC50 [1]: < 0.01 nM; ring closure, yield after HPLC ([2]; from Ac-dhLys(Me3)-Pen-Asn(NMe2)-Thr-7MeTrp-Lys(NMeAc)-Pen-AEF-6OH2Nal-THP-Glu-Asn-3Pya-Sar-NMe2?, 0.92 mM): 11%; IC50 [3]: < 10 nM
CC(=O)NCCCC[C@@H]1NC(=O)[C@H](Cc2c[nH]c3c(C)cccc23)NC(=O)[C@H]([C@@H](C)O)NC(=O)[C@H](CC(N)=O)NC(=O)[C@@H](NC(C)=O)C(C)(C)SSC(C)(C)[C@@H](C(=O)N[C@@H](Cc2ccc(OCCN)cc2)C(=O)N[C@@H](Cc2ccc3cc(O)ccc3c2)C(=O)NC2(C(=O)N[C@@H](CCC(=O)O)C(=O)N[C@@H](CC(N)=O)C(=O)N[C@@H](Cc3cccnc3)C(=O)N(C)CC(N)=O)CCOCC2)NC1=O [SEQ ID NO: 428, MeCO-Pen(3)-N-T-7MeW-K(Ac)-Pen(3)-AEF-6OH2Nal-THP-E-N-3Pya-Sar-CONH2] (Ac-[Pen]NT[Trp(7-Me)]K(Ac)[Pen][AEF][2Nal(6-OH)][Thp]EN[3Pal][Sar]-NH2; disulfide 1-6) |  | IC50 [1]: < 0.01 nM; ring closure, yield after HPLC ([2]; from Ac-Pen-Asn-Thr-7MeTrp-Lys(Ac)-Pen-AEF-6OH2Nal-THP-Glu-Asn-3Pya-Sar-NH2, 1.0 mM): 8.61%; IC50 [3]: < 10 nM
B1 |  | IL23R Reporter Assay IC50 [4]: < 10 nM
B2 |  | IL23R Reporter Assay IC50 [4]: < 10 nM
B3 |  | IL23R Reporter Assay IC50 [4]: < 10 nM
B4 |  | IL23R Reporter Assay IC50 [4]: < 10 nM
B5 |  | IL23R Reporter Assay IC50 [4]: < 10 nM
B6 |  | IL23R Reporter Assay IC50 [4]: < 10 nM
B7 | < 0.01 | 
B8 | < 0.01 | 
B9 | < 0.1 | 
B10 | < 1 | 
B11 | < 0.1 | 
B12 | < 1 | 
B13 | < 1 | 
B14 | < 0.1 | 
B15 | < 0.1 | 
B16 | < 0.01 | 
B17 | < 0.1 | 
B18 | < 0.01 | 
B19 | < 0.01 | 
B20 | > 1 | 

Source: patent US20240279281A1, “Peptide Inhibitors of Interleukin-23 Receptor” (Janssen Pharmaceutica NV, priority 2023, published 2024)
